B1: AMOTL2 peptide 64-79 (Angiomotin-like protein 2), 16-mer library wild type / TNKS ANK (TNKS 12 ANK repeats, residues 174-649) (parent complex)
chain 1: QVLQQATRQEPQGQEH
chain 2: TGVPAVSGALRELLEACRNGDVSRVKRLVDAANVNAKDMAGRKSSPLHFAAGFGRKDVVEHLLQMGANVHARDDGGLIPLHNACSFGHAEVVSLLLCQGADPNARDNWNYTPLHEAAIKGKIDVCIVLLQHGADPNIRNTDGKSALDLADPSAKAVLTGEYKKDELLEAARSGNEEKLMALLTPLNVNCHASDGRKSTPLHLAAGYNRVRIVQLLLQHGADVHAKDKGGLVPLHNACSYGHYEVTELLLKHGACVNAMDLWQFTPLHEAASKNRVEVCSLLLSHGADPTLVNCHGKSAVDMAPTPELRERLTYEFKGHSLLQAAREADLAKVKKTLALEIINFKQPQSHETALHCAVASLHPKRKQVTELLLRKGANVNEKNKDFMTPLHVAAERAHNDVMEVLHKHGAKMNALDTLGQTALHRAALAGHLQTCRLLLSYGSDPSIISLQGFTAAQMGNEAVQQILSESTPIRTSD
B2: RNF115 peptide 69-84 (E3 ubiquitin-protein ligase RNF115), 16-mer library wild type / MDM2 SWIB (MDM2 SWIB/MDM2 domain, residues 17-125) (parent complex)
chain 1: THFAELWGHLDHTMFF
chain 2: SQIPASEQETLVRPKPLLLKLLKSVGAQKDTYTMKEVLFYLGQYIMTKRLYDEKQQHIVYCSNDLLGDLFGVPSFSVKEHRKIYTMIYRNLVVVNQQESSDSGTSVSEN

Variants of: B1
Assay: proteomic peptide phage display deep mutational scan (ProP-PD DMS): M13 P8 16-mer library selected against immobilised GST-tagged bait for four days (rounds), NGS of the eluted pools per day and pseudo-replica; bait immobilised on MaxiSorp plates (10 µg), library pre-cleared on GST, 2 h binding at 4 °C, five washes; one round per day, days 1-4; value from days 2 and 3

Compared with chain 1 Q12A, chain 1 Q12P is lower in screen value: 0.00119 average fractional NGS count over selection days 2 and 3 (reads of this peptide / all reads for the bait, averaged over … for the first, 0.000174 average fractional NGS count over selection days 2 and 3 (reads of this peptide / all reads for the bait, averaged over … for the second.

First: chain 1 Q9S
Second: chain 1 Q9T
The screen value of the first is higher: 0.000874 average fractional NGS count over selection days 2 and 3 (reads of this peptide / all reads for the bait, averaged over … for the first, 0.000851 average fractional NGS count over selection days 2 and 3 (reads of this peptide / all reads for the bait, averaged over … for the second.

Going from chain 1 Q9D to chain 1 V2D, the screen value falls from 0.00088 average fractional NGS count over selection days 2 and 3 (reads of this peptide / all reads for the bait, averaged over … to 0.000341 average fractional NGS count over selection days 2 and 3 (reads of this peptide / all reads for the bait, averaged over ….

Going from chain 1 V2M to chain 1 L3N, the screen value rises from 0.000248 average fractional NGS count over selection days 2 and 3 (reads of this peptide / all reads for the bait, averaged over … to 0.00173 average fractional NGS count over selection days 2 and 3 (reads of this peptide / all reads for the bait, averaged over ….

Going from chain 1 A6T to chain 1 A6M, the screen value rises from 0.000175 average fractional NGS count over selection days 2 and 3 (reads of this peptide / all reads for the bait, averaged over … to 0.000267 average fractional NGS count over selection days 2 and 3 (reads of this peptide / all reads for the bait, averaged over ….

Going from chain 1 A6L to chain 1 A6Q, the screen value rises from 0.000992 average fractional NGS count over selection days 2 and 3 (reads of this peptide / all reads for the bait, averaged over … to 0.00606 average fractional NGS count over selection days 2 and 3 (reads of this peptide / all reads for the bait, averaged over ….

Going from chain 1 A6D to chain 1 A6F, the screen value rises from 0.000263 average fractional NGS count over selection days 2 and 3 (reads of this peptide / all reads for the bait, averaged over … to 0.00286 average fractional NGS count over selection days 2 and 3 (reads of this peptide / all reads for the bait, averaged over ….

Compared with chain 1 E10T, chain 1 E10P is lower in screen value: 0.00297 average fractional NGS count over selection days 2 and 3 (reads of this peptide / all reads for the bait, averaged over … for the first, 0.00208 average fractional NGS count over selection days 2 and 3 (reads of this peptide / all reads for the bait, averaged over … for the second.

Compared with chain 1 E10S, chain 1 Q5I is higher in screen value: 0.000835 average fractional NGS count over selection days 2 and 3 (reads of this peptide / all reads for the bait, averaged over … for the first, 0.00183 average fractional NGS count over selection days 2 and 3 (reads of this peptide / all reads for the bait, averaged over … for the second.

Going from chain 1 Q5H to chain 1 G13V, the screen value falls from 0.0129 average fractional NGS count over selection days 2 and 3 (reads of this peptide / all reads for the bait, averaged over … to 0.00137 average fractional NGS count over selection days 2 and 3 (reads of this peptide / all reads for the bait, averaged over ….

Going from chain 1 E15I to chain 1 E15H, the screen value rises from 9.73e-05 average fractional NGS count over selection days 2 and 3 (reads of this peptide / all reads for the bait, averaged over … to 0.000392 average fractional NGS count over selection days 2 and 3 (reads of this peptide / all reads for the bait, averaged over ….

Compared with chain 1 T7S, chain 1 T7F is higher in screen value: 0.000189 average fractional NGS count over selection days 2 and 3 (reads of this peptide / all reads for the bait, averaged over … for the first, 0.000844 average fractional NGS count over selection days 2 and 3 (reads of this peptide / all reads for the bait, averaged over … for the second.

Going from chain 1 Q4G to chain 1 Q4E, the screen value falls from 0.000278 average fractional NGS count over selection days 2 and 3 (reads of this peptide / all reads for the bait, averaged over … to 0.000127 average fractional NGS count over selection days 2 and 3 (reads of this peptide / all reads for the bait, averaged over ….

Going from chain 1 Q14A to chain 1 Q14M, the screen value falls from 0.0303 average fractional NGS count over selection days 2 and 3 (reads of this peptide / all reads for the bait, averaged over … to 0.000951 average fractional NGS count over selection days 2 and 3 (reads of this peptide / all reads for the bait, averaged over ….

Going from chain 1 H16R to chain 1 H16N, the screen value falls from 0.00349 average fractional NGS count over selection days 2 and 3 (reads of this peptide / all reads for the bait, averaged over … to 0.00139 average fractional NGS count over selection days 2 and 3 (reads of this peptide / all reads for the bait, averaged over ….

In the case of chain 1 H16Q, the screen value is reported as 0.000195 average fractional NGS count over selection days 2 and 3 (reads of this peptide / all reads for the bait, averaged over ….

Variants of: B2
Assay: as above

Going from chain 1 H12P to chain 1 H12G, the screen value rises from 0.000332 average fractional NGS count over selection days 2 and 3 (reads of this peptide / all reads for the bait, averaged over … to 0.0011 average fractional NGS count over selection days 2 and 3 (reads of this peptide / all reads for the bait, averaged over ….

Going from chain 1 H12T to chain 1 H12L, the screen value falls from 0.00036 average fractional NGS count over selection days 2 and 3 (reads of this peptide / all reads for the bait, averaged over … to 0.000337 average fractional NGS count over selection days 2 and 3 (reads of this peptide / all reads for the bait, averaged over ….

First: chain 1 H12Q
Second: chain 1 H12M
The screen value of the first is lower: 0.000843 average fractional NGS count over selection days 2 and 3 (reads of this peptide / all reads for the bait, averaged over … for the first, 0.00543 average fractional NGS count over selection days 2 and 3 (reads of this peptide / all reads for the bait, averaged over … for the second.

Compared with chain 1 H12N, chain 1 H12D is lower in screen value: 0.00222 average fractional NGS count over selection days 2 and 3 (reads of this peptide / all reads for the bait, averaged over … for the first, 0.00032 average fractional NGS count over selection days 2 and 3 (reads of this peptide / all reads for the bait, averaged over … for the second.

First: chain 1 H12S
Second: chain 1 H12V
The screen value of the first is higher: 0.00289 average fractional NGS count over selection days 2 and 3 (reads of this peptide / all reads for the bait, averaged over … for the first, 0.000717 average fractional NGS count over selection days 2 and 3 (reads of this peptide / all reads for the bait, averaged over … for the second.

Going from chain 1 A4V to chain 1 A4P, the screen value falls from 0.000584 average fractional NGS count over selection days 2 and 3 (reads of this peptide / all reads for the bait, averaged over … to 0.000473 average fractional NGS count over selection days 2 and 3 (reads of this peptide / all reads for the bait, averaged over ….

First: chain 1 A4F
Second: chain 1 A4E
The screen value of the first is lower: 0.000182 average fractional NGS count over selection days 2 and 3 (reads of this peptide / all reads for the bait, averaged over … for the first, 0.000667 average fractional NGS count over selection days 2 and 3 (reads of this peptide / all reads for the bait, averaged over … for the second.

First: chain 1 A4I
Second: chain 1 A4M
The screen value of the first is lower: 0.000788 average fractional NGS count over selection days 2 and 3 (reads of this peptide / all reads for the bait, averaged over … for the first, 0.000942 average fractional NGS count over selection days 2 and 3 (reads of this peptide / all reads for the bait, averaged over … for the second.

First: chain 1 A4W
Second: chain 1 A4H
The screen value of the first is lower: 0.000398 average fractional NGS count over selection days 2 and 3 (reads of this peptide / all reads for the bait, averaged over … for the first, 0.00203 average fractional NGS count over selection days 2 and 3 (reads of this peptide / all reads for the bait, averaged over … for the second.

Compared with chain 1 A4T, chain 1 A4S is higher in screen value: 0.000121 average fractional NGS count over selection days 2 and 3 (reads of this peptide / all reads for the bait, averaged over … for the first, 0.00536 average fractional NGS count over selection days 2 and 3 (reads of this peptide / all reads for the bait, averaged over … for the second.

Going from chain 1 A4L to chain 1 T1Y, the screen value rises from 0.000327 average fractional NGS count over selection days 2 and 3 (reads of this peptide / all reads for the bait, averaged over … to 0.000395 average fractional NGS count over selection days 2 and 3 (reads of this peptide / all reads for the bait, averaged over ….

Going from chain 1 T1D to chain 1 T1M, the screen value rises from 0.000599 average fractional NGS count over selection days 2 and 3 (reads of this peptide / all reads for the bait, averaged over … to 0.0023 average fractional NGS count over selection days 2 and 3 (reads of this peptide / all reads for the bait, averaged over ….

Compared with chain 1 T1L, chain 1 T1G is lower in screen value: 0.000174 average fractional NGS count over selection days 2 and 3 (reads of this peptide / all reads for the bait, averaged over … for the first, 0.000168 average fractional NGS count over selection days 2 and 3 (reads of this peptide / all reads for the bait, averaged over … for the second.

Going from chain 1 T1F to chain 1 T1H, the screen value rises from 0.000233 average fractional NGS count over selection days 2 and 3 (reads of this peptide / all reads for the bait, averaged over … to 0.00126 average fractional NGS count over selection days 2 and 3 (reads of this peptide / all reads for the bait, averaged over ….

Compared with chain 1 T1V, chain 1 F15H is lower in screen value: 0.00156 average fractional NGS count over selection days 2 and 3 (reads of this peptide / all reads for the bait, averaged over … for the first, 0.000286 average fractional NGS count over selection days 2 and 3 (reads of this peptide / all reads for the bait, averaged over … for the second.

Compared with chain 1 F15M, chain 1 F15D is lower in screen value: 0.0114 average fractional NGS count over selection days 2 and 3 (reads of this peptide / all reads for the bait, averaged over … for the first, 0.00754 average fractional NGS count over selection days 2 and 3 (reads of this peptide / all reads for the bait, averaged over … for the second.

Going from chain 1 F15Y to chain 1 F15Q, the screen value rises from 0.00151 average fractional NGS count over selection days 2 and 3 (reads of this peptide / all reads for the bait, averaged over … to 0.0113 average fractional NGS count over selection days 2 and 3 (reads of this peptide / all reads for the bait, averaged over ….

Compared with chain 1 F15P, chain 1 F15W is lower in screen value: 0.00458 average fractional NGS count over selection days 2 and 3 (reads of this peptide / all reads for the bait, averaged over … for the first, 0.00256 average fractional NGS count over selection days 2 and 3 (reads of this peptide / all reads for the bait, averaged over … for the second.

Compared with chain 1 F15L, chain 1 F15S is lower in screen value: 0.0296 average fractional NGS count over selection days 2 and 3 (reads of this peptide / all reads for the bait, averaged over … for the first, 0.0126 average fractional NGS count over selection days 2 and 3 (reads of this peptide / all reads for the bait, averaged over … for the second.

First: chain 1 F15R
Second: chain 1 E5S
The screen value of the first is lower: 0.00042 average fractional NGS count over selection days 2 and 3 (reads of this peptide / all reads for the bait, averaged over … for the first, 0.00184 average fractional NGS count over selection days 2 and 3 (reads of this peptide / all reads for the bait, averaged over … for the second.

First: chain 1 E5D
Second: chain 1 E5Y
The screen value of the first is higher: 0.00488 average fractional NGS count over selection days 2 and 3 (reads of this peptide / all reads for the bait, averaged over … for the first, 0.000681 average fractional NGS count over selection days 2 and 3 (reads of this peptide / all reads for the bait, averaged over … for the second.

First: chain 1 E5T
Second: chain 1 E5N
The screen value of the first is higher: 0.000518 average fractional NGS count over selection days 2 and 3 (reads of this peptide / all reads for the bait, averaged over … for the first, 0.000269 average fractional NGS count over selection days 2 and 3 (reads of this peptide / all reads for the bait, averaged over … for the second.
